Test results published in publication PMC10587035 (Discover Mental Health, 2023).

Key:
[1] = target: human oxytocin receptor, stably transfected in HEK293 cells (human) (UniProt P30559)
[2] = target: green-fluorescence protein (GFP)-labeled human OT-R in HEK293 cells (human) (UniProt P30559)
human OT-R = target: T1, human OT-R (Homo sapiens, UniProt P30559); assay: In vitro oxytocin receptor activation assay (intracellular Ca2+ mobilization, Fluo-4); format: cell-based; details: HEK293 cells expressing human OT-R; ATP 10^-4 M as positive control; IgG applied without OT
T1 construct: expressed in transfected cells; host or cells: HEK293, stably transfected
T1 sequence (P30559 1-389): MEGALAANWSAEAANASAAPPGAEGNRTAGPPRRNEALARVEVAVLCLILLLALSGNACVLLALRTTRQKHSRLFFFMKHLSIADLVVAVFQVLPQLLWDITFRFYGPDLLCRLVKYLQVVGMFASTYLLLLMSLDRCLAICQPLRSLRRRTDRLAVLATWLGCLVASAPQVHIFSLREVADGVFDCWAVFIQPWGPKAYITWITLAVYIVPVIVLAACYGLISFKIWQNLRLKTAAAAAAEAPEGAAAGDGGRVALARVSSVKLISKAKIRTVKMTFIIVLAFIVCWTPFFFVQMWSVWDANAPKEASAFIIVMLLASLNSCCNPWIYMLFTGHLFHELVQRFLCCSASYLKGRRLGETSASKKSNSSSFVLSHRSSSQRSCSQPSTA
Protocol: Cells were grown on DMEM medium (Gibco, Thermo Fisher Scientific) with 10% FBS and 0.6% Penicillin/Streptomycin (Merck). To prepare assay plates, cell line was treated with 0.25% trypsin-EDTA (Gibco), cell pellet was resuspended in medium and filed in a flat clear bottom black 96-microwell plate (Greiner Bio-One, Les Ulis, France) at a rate of 50000 cells per well, which was coated during 1 h at 37°C with 100µg/mL of Poly-L-Lysin (Merck) and 1 h with 100µg/mL of Collagen I (Institut de Biotechnologie Jacques Boy, Reims, France). The microplate was incubated 24 hours at 37°C with 5% of CO2.
Briefly, confluent cells were incubated 45 min at 37°C with 2 µM Fluo-4 acetoxymethyl ester (AM) calcium dye (Life Technologies, Villebon-sur-Yvette, France) in complete HBSS, washed twice and incubated in 200 µL of the same complete medium at 37°C for 20 min. Fluorescence was recorded using a Flexstation III fluorescence microplate reader system (Molecular Devices, Saint-Grégoire, France) during 180 s with an excitation wavelength of 485 nm, an emission wavelength of 525 nm and a cutoff filter of 515 nm. […]
Ca^2+ releasing kinetics were determined, as well as area under curve, the maximal fluorescence peak and the time for which this maximum is reached. Fluorescence data were calculated as mean +/- SEM.

Chain of oxytocin (P01178 whole entry, looked up): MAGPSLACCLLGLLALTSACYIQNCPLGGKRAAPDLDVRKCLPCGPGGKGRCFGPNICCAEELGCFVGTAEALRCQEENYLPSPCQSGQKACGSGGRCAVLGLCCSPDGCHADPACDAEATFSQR

Row | EC50 of Ca2+ release in OT-R expressing cells, OT dose-response with OT preincubated with plasma IgG of aggressors (OT/IgG IC, fixed IgG 840 nM) [1] [nM] | EC50 of Ca2+ release in OT-R expressing cells, OT dose-response with OT preincubated with plasma IgG of controls (OT/IgG IC, fixed IgG 840 nM) [1] [nM] | intracellular Ca2+ mobilization in HEK293 cells stably transfected with human OT-R, OT alone at 10^-7 M (fold over basal levels) [1] | half-time internalization rate of GFP-labeled OT-R (membrane/cytoplasmic fluorescence, exponential decay model), OT alone [2] [min] | half-time internalization rate of GFP-labeled OT-R (membrane/cytoplasmic fluorescence, exponential decay model), OT in immune complex with plasma IgG of aggressors [2] [min] | half-time internalization rate of GFP-labeled OT-R (membrane/cytoplasmic fluorescence, exponential decay model), OT in immune complex with plasma IgG of controls [2] [min] | intracellular Ca2+ mobilization (result in words) (human OT-R) | Compound
1 | 6.1 | 3.1 | 3.5 | 16.7 | 23.3 | 6.4 |  | oxytocin (from UniProt P01178 20-28) (peptide)
2 |  |  |  |  |  |  | mild increase | Nc1ncnc2c1ncn2[C@@H]1O[C@H](COP(=O)(O)OP(=O)(O)OP(=O)(O)O)[C@@H](O)[C@H]1O [ATP, adenosine triphosphate]
